Results published in paper PMC3190825.

Tests used:
Test in all cases: SPR
[1] = target: IgABR tandem construct of protein β (group B Streptococcus)
[2] = target: Recombinant B6N fragment of protein β (single copy) (group B Streptococcus)
[3] = target: B6N tandem construct of protein β (group B Streptococcus)

Question: Purified human IgA (natural protein) was tested. Which Kd [1] did it give?
Answer: Its Kd is 61 nM.

Question: For “Recombinant hSiglec-5-Fc chimera (from UniProt O15389 17-441) (Fc fusion)”, which Kd [2] is on record?
Answer: Its Kd is 14 nM.

B1: Recombinant hSiglec-5-Fc chimera (Fc fusion)
chain: EKPVYELQVQKSVTVQEGLCVLVPCSFSYPWRSWYSSPPLYVYWFRDGEIPYYAEVVATNNPDRRVKPETQGRFRLLGDVQKKNCSLSIGDARMEDTGSYFFRVERGRDVKYSYQQNKLNLEVTALIEKPDIHFLEPLESGRPTRLSCSLPGSCEAGPPLTFSWTGNALSPLDPETTRSSELTLTPRPEDHGTNLTCQMKRQGAQVTTERTVQLNVSYAPQTITIFRNGIALEILQNTSYLPVLEGQALRLLCDAPSNPPAHLSWFQGSPALNATPISNTGILELRRVRSAEEGGFTCRAQHPLGFLQIFLNLSVYSLPQLLGPSCSWEAEGLHCRCSFRARPAPSLCWRLEEKPLEGNSSQGSFKVNSSSAGPWANSSLILHGGLSSDLKVSCKAWNIYGSQSGSVLLLQGRSNLGTGVVPAAL
modifications: 125I (chloramine-T method) in the assays with radiolabeled hSiglec-5
Question: How did the Kd [3] turn out when B1 was run?
Answer: The Kd was 3.5 nM.
